The text below walks through data of PMC8752512 (Journal of molecular biology, 2021).

Usually Kd stands for the free concentration of one partner at which half of the binding sites on the other are occupied at equilibrium, for simple one-to-one binding.

The target of the assay is Fgr SH3 domain (human, UniProt P09769 77-138, uniformly 15N-labelled). Briefly: NMR titration.

Consider PPTPNPPRPP [arrestin-3 aSwI peptide (PPTPNPPRPP)], for which binding was characterised by a dissociation constant (Kd) of 347 µM.
